This data set deals with the molecule itself. The data set can be described thus: cryo-EM structure.

The values that follow come from paper doi:10.1101/2022.11.25.517900 (bioRxiv, 2022).

B1: Vibrio alginolyticus PomB, full length, non-cleaved (without protease site insertion) (natural protein, UniProt O06874 1-315, looked up)
chain: MDDEDNKCDCPPPGLPLWMGTFADLMSLLMCFFVLLLSFSEMDVLKFKQIAGSMKFAFGVQNQLEVKDIPKGTSIIAQEFRPGRPEPTPIDVIMQQTMDITQQTLEFHEGESDRAGGTKRDEGKLTGGQSPATSTQNNESAEADMQQQQSKEMSQEMETLMESIKKALEREIEQGAIEVENLGQQIVIRMREKGAFPEGSAFLQPKFRPLVRQIAELVKDVPGIVRVSGHTDNRPLDSELYRSNWDLSSQRAVSVAQEMEKVRGFSHQRLRVRGMADTEPLLPNDSDDNRALNRRVEISIMQGEPLYSEEVPVIQ
In the case of B1, the binding result is given as “binds”.
